Measured values taken from US20160060317A1.

Target: receptors for neurturin on the cell surface of human neuroblastoma cell line TGW (JCRB0618)
Assay: cell-based or functional assay

| Binder | biological activity in vitro (tyrosine hydroxylase reporter gene, luciferase, TGW cells), EC50 [ng/ml] | reporter gene activity (luciferase, SRE reporter in TGW cells), EC50 [ng/mL] |
| --- | --- | --- |
| human recombinant neurturin (unmodified protein), Q99748 96-197 (ligand) ARLGARPCGLRELEVRVSELGLGYASDETVLFRYCAGACEAAARVYDLGLRRLRQRRRLRRERVRAQPCCRPTAYEDEVSFLDAHSRYHTVHELSARECACV | 2.2 |  |
| mono-CES0310-neurturin, Q99748 96-197; Q99748 96-197 (ligand, here or on the partner: six-arm branched PEG of about 5 kDa on the N-terminal amino acid) chain 1: ARLGARPCGLRELEVRVSELGLGYASDETVLFRYCAGACEAAARVYDLGLRRLRQRRRLRRERVRAQPCCRPTAYEDEVSFLDAHSRYHTVHELSARECACV chain 2: ARLGARPCGLRELEVRVSELGLGYASDETVLFRYCAGACEAAARVYDLGLRRLRQRRRLRRERVRAQPCCRPTAYEDEVSFLDAHSRYHTVHELSARECACV |  | 12 |

Other lines, results leading:

| biological activity in vitro (tyrosine hydroxylase reporter gene, luciferase, TGW cells), EC50 [ng/ml] | reporter gene activity (luciferase, SRE reporter in TGW cells), EC50 [ng/mL] | Binder |
| --- | --- | --- |
|  | 7.4 | mono-mPEG-CHO-neurturin, Q99748 96-197; Q99748 96-197 (ligand, here or on the partner: linear 5 kDa polyethylene glycol butyraldehyde-derived PEG on the N-terminal amino acid) chain 1: ARLGARPCGLRELEVRVSELGLGYASDETVLFRYCAGACEAAARVYDLGLRRLRQRRRLRRERVRAQPCCRPTAYEDEVSFLDAHSRYHTVHELSARECACV chain 2: ARLGARPCGLRELEVRVSELGLGYASDETVLFRYCAGACEAAARVYDLGLRRLRQRRRLRRERVRAQPCCRPTAYEDEVSFLDAHSRYHTVHELSARECACV |
|  | 9.7 | mono-mPEG-NHS-neurturin, Q99748 96-197; Q99748 96-197 (ligand, here or on the partner: about 5 kDa linear PEG (mPEG-succinimidyl succinat reagent, NHS-method) on the N-terminal amino acid) chain 1: ARLGARPCGLRELEVRVSELGLGYASDETVLFRYCAGACEAAARVYDLGLRRLRQRRRLRRERVRAQPCCRPTAYEDEVSFLDAHSRYHTVHELSARECACV chain 2: ARLGARPCGLRELEVRVSELGLGYASDETVLFRYCAGACEAAARVYDLGLRRLRQRRRLRRERVRAQPCCRPTAYEDEVSFLDAHSRYHTVHELSARECACV |
